Measured values taken from US20120316071A1 (published 2012).

T1: rHuman Erythropoietin R/Fc Chimera, CF (R&D Systems Cat#963-ER) (human, UniProt P19235 25-250)
T1 construct: Bought recombinant protein; also called EPO R; EPO R/Fc; Fc part of the bought chimera not given
T1 sequence (looked up): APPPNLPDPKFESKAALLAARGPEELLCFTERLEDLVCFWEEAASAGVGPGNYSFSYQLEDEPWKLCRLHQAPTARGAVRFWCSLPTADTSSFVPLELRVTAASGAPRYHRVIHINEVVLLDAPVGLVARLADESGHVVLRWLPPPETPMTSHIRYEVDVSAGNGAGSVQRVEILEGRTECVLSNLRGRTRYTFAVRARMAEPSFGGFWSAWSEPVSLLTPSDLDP


Tests used:
[1] = target: T2, Recombinant Human DLL4 (delta-like protein 4) (human, UniProt Q9NR61 27-524); experiment: ELISA, Fab on plate-coated DLL4
T2 construct: also called rHuman DLL4; Delta-like 4

[2] = target: T2, Recombinant Human DLL4 (delta-like …); experiment: ECL (MSD) binding assay, Fab on immobilized DLL4
[3] = target: T3, Recombinant Human DLL4 (R&D Systems Cat#1506-D4/CF) (human, UniProt Q9NR61 27-524); experiment: ECL (MSD) binding assay, Fab on immobilized recombinant human DLL4
T3 construct: also called rHuman DLL4; delta-like protein 4

[4] = target: T4, rHuman Notch-1/Fc Chimera, CF (R&D Systems Cat#3647-TK) (human, UniProt P46531 19-526); experiment: ECL multispot (MSD) binding assay, antigen spotted on plate, Fab 0.04 uM;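 also: purified Fab incubated 1 h at 20 °C on antigen spots, detected via TAG-labelled antibody, ECL read against each well's blank, with signal-to-blank of at least 4 scored as binder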
T4 construct: Bought recombinant protein; Fc part of the bought chimera not given

[5] = target: T5, rHuman CD44/Fc Chimera, CF (R&D Systems Cat#3660-CD) (human, UniProt P16070 21-220); experiment: as above
T5 construct: Bought recombinant protein; Fc part of the bought chimera not given

[6] = target: T6, rHuman P-Cadherin/Fc Chimera, CF (R&D Systems Cat#861-PC) (human, UniProt P22223 108-654); experiment: as above
T6 construct: Bought recombinant protein; Fc part of the bought chimera not given

[7] = target: T1, rHuman Erythropoietin R/Fc Chimera, CF …; experiment: as above
[8] = target: T7, Recombinant Human DLL4 (R&D Systems Cat#1506-D4/CF) (human, UniProt Q9NR61 27-524); experiment: as above
T7 construct: Bought recombinant protein; also called delta-like protein 4; rHuman DLL4

[9] = target: T8, rHuman ErbB2/Fc Chimera, CF (R&D Systems Cat#1129-ER) (human, UniProt P04626 23-652); experiment: as above
T8 construct: Bought recombinant protein; also called human epidermal growth factor 2 receptor; Fc part of the bought chimera not given

[10] = target: T9, rHuman EGF R/Fc Chimera, CF (R&D Systems Cat#344-ER) (human, UniProt P00533 25-645); experiment: as above
T9 construct: Bought recombinant protein; also called epidermal growth factor receptor; Fc part of the bought chimera not given

Row | Binder | ELISA (Signal-Noise) [1] | ECL signal [2] | ECL signal [3] | ECL signal [6] | ECL signal [8] | other results
1 | Fab VH5-51_IGHD5-18*01>3_IGHJ4*01 G100K/G104T G35T & V3-4_IGLJ1*01 (Fab, V domains shown, Fab from E. coli: VH-CH1 from Plasmid A with His6 and Flag tags, VL with lambda CL from Plasmid E; also called KT G35T) VH: EVQLVQSGAEVKKPGESLKISCKGSGYSFTSYWITWVRQMPGKGLEWMGIIYPGDSDTRYSPSFQGQVTISADKSISTAYLQWSSLKASDTAMYYCARRKYSYTYDYFDYWGQGTLVTVSS VL: QTVVTQEPSFSVSPGGTVTLTCGLSSGSVSTSYYPSWYQQTPGQAPRTLIYSTNTRSSGVPDRFSGSILGNKAALTITGAQADDESDYYCVLYMGSGISYVFGTGTKVTVL | 0.07 | 14500 | – | – | – | –
2 | Fab VH5-51_IGHD5-18*01>3_IGHJ4*01 G100K/G104T/S28R (KT S28R) & V3-4_IGLJ1*01 (Fab, V domains shown, Tested as Fab; CH1 with His6/Flag tags (plasmid A) and lambda CL (plasmid E) come from the expression vectors) VH: EVQLVQSGAEVKKPGESLKISCKGSGYRFTSYWIGWVRQMPGKGLEWMGIIYPGDSDTRYSPSFQGQVTISADKSISTAYLQWSSLKASDTAMYYCARRKYSYTYDYFDYWGQGTLVTVSS VL: QTVVTQEPSFSVSPGGTVTLTCGLSSGSVSTSYYPSWYQQTPGQAPRTLIYSTNTRSSGVPDRFSGSILGNKAALTITGAQADDESDYYCVLYMGSGISYVFGTGTKVTVL | – | – | 6420 | – | – | –
3 | Fab VH5-51_IGHD5-18*01>3_IGHJ4*01 G100K/G104T (H:KT) & V3-4_IGLJ1*01 Y93A (Fab, V domains shown, Fab; Expressed from Plasmid A (CH1, His6 and Flag tags) and Plasmid E (lambda CL); also called KT & Y93A) VH: EVQLVQSGAEVKKPGESLKISCKGSGYSFTSYWIGWVRQMPGKGLEWMGIIYPGDSDTRYSPSFQGQVTISADKSISTAYLQWSSLKASDTAMYYCARRKYSYTYDYFDYWGQGTLVTVSS VL: QTVVTQEPSFSVSPGGTVTLTCGLSSGSVSTSYYPSWYQQTPGQAPRTLIYSTNTRSSGVPDRFSGSILGNKAALTITGAQADDESDYYCVLAMGSGISYVFGTGTKVTVL | – | – | – | 497 | 8110 | ECL signal [4]: 725; ECL signal [5]: 700; ECL signal [7]: 602
4 | Fab VH5-51_IGHD5-18*01>3_IGHJ4*01 G100K/G104T (H:KT) & V3-4_IGLJ1*01 M94A (Fab, V domains shown, Fab; Expressed from Plasmid A (CH1, His6 and Flag tags) and Plasmid E (lambda CL); also called KT & M94A) VH: EVQLVQSGAEVKKPGESLKISCKGSGYSFTSYWIGWVRQMPGKGLEWMGIIYPGDSDTRYSPSFQGQVTISADKSISTAYLQWSSLKASDTAMYYCARRKYSYTYDYFDYWGQGTLVTVSS VL: QTVVTQEPSFSVSPGGTVTLTCGLSSGSVSTSYYPSWYQQTPGQAPRTLIYSTNTRSSGVPDRFSGSILGNKAALTITGAQADDESDYYCVLYAGSGISYVFGTGTKVTVL | – | – | – | 472 | 35300 | ECL signal [9]: 1200; ECL signal [10]: 1130; ECL signal [4]: 574; ECL signal [5]: 633; ECL signal [7]: 614
5 | Fab VH5-51_IGHD5-18*01>3_IGHJ4*01 G100K/G104T G35A & V3-4_IGLJ1*01 (Fab, V domains shown, Fab from E. coli: VH-CH1 from Plasmid A with His6 and Flag tags, VL with lambda CL from Plasmid E; also called KT G35A) VH: EVQLVQSGAEVKKPGESLKISCKGSGYSFTSYWIAWVRQMPGKGLEWMGIIYPGDSDTRYSPSFQGQVTISADKSISTAYLQWSSLKASDTAMYYCARRKYSYTYDYFDYWGQGTLVTVSS VL: QTVVTQEPSFSVSPGGTVTLTCGLSSGSVSTSYYPSWYQQTPGQAPRTLIYSTNTRSSGVPDRFSGSILGNKAALTITGAQADDESDYYCVLYMGSGISYVFGTGTKVTVL | 0.06 | 19700 | – | – | – | –
6 | Fab VH5-51_IGHD5-18*01>3_IGHJ4*01 G100K/G104T S28R & V3-4_IGLJ1*01 (Fab, V domains shown, Fab from E. coli: VH-CH1 from Plasmid A with His6 and Flag tags, VL with lambda CL from Plasmid E; also called KT S28R) VH: EVQLVQSGAEVKKPGESLKISCKGSGYRFTSYWIGWVRQMPGKGLEWMGIIYPGDSDTRYSPSFQGQVTISADKSISTAYLQWSSLKASDTAMYYCARRKYSYTYDYFDYWGQGTLVTVSS VL: QTVVTQEPSFSVSPGGTVTLTCGLSSGSVSTSYYPSWYQQTPGQAPRTLIYSTNTRSSGVPDRFSGSILGNKAALTITGAQADDESDYYCVLYMGSGISYVFGTGTKVTVL | 0.29 | 51400 | – | – | – | –
7 | Fab VH5-51_IGHD5-18*01>3_IGHJ4*01 G100K/G104T G35V & V3-4_IGLJ1*01 (Fab, V domains shown, Fab from E. coli: VH-CH1 from Plasmid A with His6 and Flag tags, VL with lambda CL from Plasmid E; also called KT G35V) VH: EVQLVQSGAEVKKPGESLKISCKGSGYSFTSYWIVWVRQMPGKGLEWMGIIYPGDSDTRYSPSFQGQVTISADKSISTAYLQWSSLKASDTAMYYCARRKYSYTYDYFDYWGQGTLVTVSS VL: QTVVTQEPSFSVSPGGTVTLTCGLSSGSVSTSYYPSWYQQTPGQAPRTLIYSTNTRSSGVPDRFSGSILGNKAALTITGAQADDESDYYCVLYMGSGISYVFGTGTKVTVL | 0.09 | 21200 | – | – | – | –
8 | Fab VH5-51_IGHD5-18*01>3_IGHJ4*01 G100K/G104T S28N & V3-4_IGLJ1*01 (Fab, V domains shown, Fab from E. coli: VH-CH1 from Plasmid A with His6 and Flag tags, VL with lambda CL from Plasmid E; also called KT S28N) VH: EVQLVQSGAEVKKPGESLKISCKGSGYNFTSYWIGWVRQMPGKGLEWMGIIYPGDSDTRYSPSFQGQVTISADKSISTAYLQWSSLKASDTAMYYCARRKYSYTYDYFDYWGQGTLVTVSS VL: QTVVTQEPSFSVSPGGTVTLTCGLSSGSVSTSYYPSWYQQTPGQAPRTLIYSTNTRSSGVPDRFSGSILGNKAALTITGAQADDESDYYCVLYMGSGISYVFGTGTKVTVL | 0.09 | 17300 | – | – | – | –
9 | Fab VH5-51_IGHD5-18*01>3_IGHJ4*01 G100K/G104T/G24T/S28R/G35V (KT TRV) & V3-4_IGLJ1*01 (Fab, V domains shown, Tested as Fab; CH1 with His6/Flag tags (plasmid A) and lambda CL (plasmid E) come from the expression vectors; also called H:KT TRV & L:wt) VH: EVQLVQSGAEVKKPGESLKISCKTSGYRFTSYWIVWVRQMPGKGLEWMGIIYPGDSDTRYSPSFQGQVTISADKSISTAYLQWSSLKASDTAMYYCARRKYSYTYDYFDYWGQGTLVTVSS VL: QTVVTQEPSFSVSPGGTVTLTCGLSSGSVSTSYYPSWYQQTPGQAPRTLIYSTNTRSSGVPDRFSGSILGNKAALTITGAQADDESDYYCVLYMGSGISYVFGTGTKVTVL | – | – | 26100 | – | – | –
10 | Fab VH5-51_IGHD5-18*01>3_IGHJ4*01 G100K/G104T/G24L/S28R/G35V (KT LRV) & V3-4_IGLJ1*01 (Fab, V domains shown, Tested as Fab; CH1 with His6/Flag tags (plasmid A) and lambda CL (plasmid E) come from the expression vectors) VH: EVQLVQSGAEVKKPGESLKISCKLSGYRFTSYWIVWVRQMPGKGLEWMGIIYPGDSDTRYSPSFQGQVTISADKSISTAYLQWSSLKASDTAMYYCARRKYSYTYDYFDYWGQGTLVTVSS VL: QTVVTQEPSFSVSPGGTVTLTCGLSSGSVSTSYYPSWYQQTPGQAPRTLIYSTNTRSSGVPDRFSGSILGNKAALTITGAQADDESDYYCVLYMGSGISYVFGTGTKVTVL | – | – | 15300 | – | – | –
11 | Fab VH5-51_IGHD5-18*01>3_IGHJ4*01 G100K/G104T (H:KT) & V3-4_IGLJ1*01 S96A (Fab, V domains shown, Fab; Expressed from Plasmid A (CH1, His6 and Flag tags) and Plasmid E (lambda CL); also called KT & S96A) VH: EVQLVQSGAEVKKPGESLKISCKGSGYSFTSYWIGWVRQMPGKGLEWMGIIYPGDSDTRYSPSFQGQVTISADKSISTAYLQWSSLKASDTAMYYCARRKYSYTYDYFDYWGQGTLVTVSS VL: QTVVTQEPSFSVSPGGTVTLTCGLSSGSVSTSYYPSWYQQTPGQAPRTLIYSTNTRSSGVPDRFSGSILGNKAALTITGAQADDESDYYCVLYMGAGISYVFGTGTKVTVL | – | – | – | 491 | 32300 | ECL signal [9]: 1280; ECL signal [10]: 1000
12 | Fab VH5-51_IGHD5-18*01>3_IGHJ4*01 G100K/G104T (H:KT) & V3-4_IGLJ1*01 S99A (Fab, V domains shown, Fab; Expressed from Plasmid A (CH1, His6 and Flag tags) and Plasmid E (lambda CL); also called KT & S99A) VH: EVQLVQSGAEVKKPGESLKISCKGSGYSFTSYWIGWVRQMPGKGLEWMGIIYPGDSDTRYSPSFQGQVTISADKSISTAYLQWSSLKASDTAMYYCARRKYSYTYDYFDYWGQGTLVTVSS VL: QTVVTQEPSFSVSPGGTVTLTCGLSSGSVSTSYYPSWYQQTPGQAPRTLIYSTNTRSSGVPDRFSGSILGNKAALTITGAQADDESDYYCVLYMGSGIAYVFGTGTKVTVL | – | – | – | 500 | 18200 | ECL signal [9]: 1320; ECL signal [10]: 956; ECL signal [4]: 674; ECL signal [5]: 670; ECL signal [7]: 693
13 | Fab VH5-51_IGHD5-18*01>3_IGHJ4*01 G100K/G104T/G24A/S28R/G35V (KT ARV) & V3-4_IGLJ1*01 (Fab, V domains shown, Tested as Fab; CH1 with His6/Flag tags (plasmid A) and lambda CL (plasmid E) come from the expression vectors) VH: EVQLVQSGAEVKKPGESLKISCKASGYRFTSYWIVWVRQMPGKGLEWMGIIYPGDSDTRYSPSFQGQVTISADKSISTAYLQWSSLKASDTAMYYCARRKYSYTYDYFDYWGQGTLVTVSS VL: QTVVTQEPSFSVSPGGTVTLTCGLSSGSVSTSYYPSWYQQTPGQAPRTLIYSTNTRSSGVPDRFSGSILGNKAALTITGAQADDESDYYCVLYMGSGISYVFGTGTKVTVL | – | – | 17400 | – | – | –
